Results: patent US20220289854A1

Molecular target: mouse CX3CR1 (mouse)
Assay: flow cytometry titration on Jurkat cells transfected with mCX3CR1; goat anti-mIgG PE

B1: 455.1C11 anti-mouse CX3CR1 monoclonal antibody (antibody, V domains shown)
VH: QVQLVETGGGLVRPGNSLKLSCVTSGFTFSNYRMHWLRQFPGKRLEWIAVIAFKSDKFGANYAESVKGRFAISRDDSKNSVYLEMSRLREEDTATYFCSRDGNGPFDYWGQGTTLTVSS
VL: DIVMSQSPSSLTVSVGEKVTMSCKSSQSLLYSGNQKSYLAWYQQKPGQSPRLLIYWASTRESGVPDRFTGSGSGTDFTLTISGVKAEDLAVYYCQRYYGYPRTFGGGTKLEIK
- EC50: 0.102 µg/mL
